Legend:
[1] = test system: BRV5 cells, Fn14 gene expression; assay: Fn14 gene expression with TWEAK, BRV5 (RT-PCR); type: cell-based, human; conditions: for Normalized level of expression of Fn14 gene: BRV5, TWEAK 25 ng/ml
Description: Figure 1 Characterization TWEAK-dependent/not dependent cells. (A) Representative images of Fn14 expression (pink) in BRV5, 435-P and HT29 cells labelled by immunofluorescence. The protein has similar expression in BRV5 and the positive control HT29 cells, and less expressed in 435-P. DAPI (blue) was used for nucleus identification. (B) RT-PCR analysis to quantify Fn14 gene expression of cells cultured in the presence (dark green) or absence (light green) of TWEAK (25 ng/mL) at 48 h. Up-regulation of Fn14 is observed only in HT29 and BRV5 cells. Bars and error bars represent the average and standard deviation as calculated from three replicates respectively. P values represented as: * - significant (Pvalue: 0.01 to 0.05) and **- very-significant (Pvalue: 0.001 to 0.01).
Since the transcriptional activation of Fn14 expression can be induced in cancer cells by the TWEAK-Fn14 interaction, either in a paracrine or autocrine manner, we investigated whether TWEAK transactivates Fn14 (TNFR2F12A) in BRV5 brain metastatic cells. We primed cells with TWEAK and analysed TNFR2F12A gene expression including in the analysis 435-Br1 cells, the first generation of brain metastatic cells BRV5.
Three different cell lines were used in this study: BRV5, MDA-MB 435 (435-P), and HT29. The BRV5 is a highly metastatic brain cell line, obtained in one of our laboratories by primary culture from a brain of a nude mouse inoculated with human 435-Br1 brain metastatic cells, as previously described and used as a model to test the peptides in cell cultures. […] The triple negative 435-P cell line is a useful human breast cancer model that expresses both epithelial and melanocytic markers, and was included as the parental cell from which 435-Br1 metastatic variant was initially originated (both cell lines kindly provided by Dr Fabra at IDIBELL Institute, Hospitalet de Llobregat, Spain). Finally, HT29 human colon carcinoma cells obtained from the European Type Culture Collection (ECACC 91072201) were used as a positive control of TWEAK dependent Fn14 over-expressing cells to evaluate TWEAK-Fn14 axis of brain metastatic variants.

[2] = test system: BRV5 cells, NIK expression; assay: Time-course RT-PCR of NIK (MAP4K4), BRV5; type: cell-based, human; conditions: TWEAK, 6 to 24 h
Text: The final aspect to consider in the characterization of BRV5 cells prior to the screening of peptides was to assess when the signalling pathway mediated by TWEAK-Fn14 will be at its peak of activity. To that end, we monitored the level of expression of the primary kinase NIK (MAP4K4) at different time points. It has been reported that transcriptional activation of Fn14 would be operated mainly by the NF-κB non-canonical pathway, through inducing the primary kinase NIK (MAP4K4) that phosphorylates IKKα [26]. Thus, we assessed the level of expression of NIK from 6 to 24 h after cells were treated with TWEAK in a time-course RT-PCR (Figure 2). […] From these experiments we concluded that TWEAK-Fn14 pathway is mainly activated at 6 h after treating cells, and thus we designed out experiments to check the inhibitory ability of the peptides at this specific time point.
Figure 2 NIK activation in brain metastatic cells. Metastatic cells were primed with TWEAK in a time-course RT-PCR experiment. […] Bars and error bars represent the average and standard deviation as calculated from three replicates respectively.

B1: tumour necrosis factor-like weak inducer of apoptosis (protein, UniProt O43508 94-249, looked up)
Tumor necrosis factor ligand …: SAPKGRKTRARRAIAAHYEVHPRPGQDGAQAGVDGTVSGWEEARINSSSPLRYNRQIGEFIVTRAGLYYLYCQVHFDEGKAVYLKLDLLVDGVLALRCLEEFSATAASSLGPQLRLCQVSGLLALRPGSSLRIRTLPWAHLKAAPFLTYFGLFQVH
For B1, the “Normalized level of expression of Fn14 gene” value (“Normalized level” below) ([1]; technical replicate 1) was 0.1340, the “Normalized level” value ([1]; technical replicate 2) was 0.1202 and the “Normalized level” value ([1]; technical replicate 3) was 0.1441. For the same molecule, the Fn14 transcriptional expression ([1]; TWEAK 25 ng/mL, 48 h, BRV5) was “significantly activated in BRV5 cells (p = 0.0031)” and the NIK expression [2] was “increased in TWEAK stimulated BRV5 cells after 6 h of treatment, decreasing at 12 h and partially recovered at 24 h”.

Reference: paper PMC7866087, “Evaluation of Computationally Designed Peptides against TWEAK, a Cytokine of the Tumour Necrosis Factor Ligand Family” (International Journal of Molecular Sciences, 2021)
